In publication PMC10511561, “Synergism between CMG helicase and leading strand DNA polymerase at replication fork” (Nature Communications, 2023):

T1: Mcm4 (subunit of CMG) (yeast, UniProt P30665 1-933)
T1 construct: Mcm4, yeast; Chain of m1 as it stands in the replisome structure; source: yeast strain yJCZ2, purified as part of CMG (anti-FLAG M2 resin, Mono Q, Superose 6)
T1 sequence: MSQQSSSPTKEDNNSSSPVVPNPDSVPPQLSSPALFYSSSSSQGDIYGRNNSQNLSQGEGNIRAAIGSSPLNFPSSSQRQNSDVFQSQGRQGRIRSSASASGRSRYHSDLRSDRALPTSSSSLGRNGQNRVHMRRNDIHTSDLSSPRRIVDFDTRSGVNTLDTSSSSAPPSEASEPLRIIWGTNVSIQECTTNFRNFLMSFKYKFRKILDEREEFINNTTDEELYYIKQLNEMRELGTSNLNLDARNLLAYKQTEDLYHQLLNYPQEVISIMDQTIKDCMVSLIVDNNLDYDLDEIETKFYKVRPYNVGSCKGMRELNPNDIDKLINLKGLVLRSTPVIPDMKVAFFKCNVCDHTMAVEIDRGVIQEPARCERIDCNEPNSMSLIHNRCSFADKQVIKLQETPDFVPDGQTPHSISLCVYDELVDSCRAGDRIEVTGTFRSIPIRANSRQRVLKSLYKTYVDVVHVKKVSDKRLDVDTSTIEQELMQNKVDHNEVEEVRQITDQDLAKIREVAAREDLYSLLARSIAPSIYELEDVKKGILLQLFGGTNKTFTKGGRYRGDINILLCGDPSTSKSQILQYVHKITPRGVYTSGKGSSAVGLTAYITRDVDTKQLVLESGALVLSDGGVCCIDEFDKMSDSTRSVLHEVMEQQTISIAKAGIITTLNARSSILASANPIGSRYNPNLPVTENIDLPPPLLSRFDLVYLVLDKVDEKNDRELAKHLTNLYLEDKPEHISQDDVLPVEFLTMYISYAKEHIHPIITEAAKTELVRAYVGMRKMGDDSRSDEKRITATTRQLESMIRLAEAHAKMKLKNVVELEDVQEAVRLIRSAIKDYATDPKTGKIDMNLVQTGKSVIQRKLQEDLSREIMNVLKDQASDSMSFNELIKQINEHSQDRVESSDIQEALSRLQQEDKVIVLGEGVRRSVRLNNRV


Key:
Assay in all cases: cryo-EM structure; replisome assembled at room temperature from 0.7 uM CMG, forked DNA and ATPγS, then 1.5 molar excess of Polε, Ctf4, Tof1-Csm3; 100 mM KCl, 25 mM HEPES pH 7.6, 4 mM MgCl2, 4 mM ATPγS; 10-30% glycerol gradient with glutaraldehyde fixation; States I-VI by 3D classification
Tof1-Csm3 = biological target: T2, Tof1-Csm3 (yeast, UniProt P53840 1-1238; Q04659 1-317); settings: both partners purified
T2 construct: Tof1, yeast; Csm3, yeast; Purified beforehand as one complex; also called Tof1 and Csm3; components of the fork protection complex (FPC); source: yeast strain yAE48, galactose-induced, purified (calmodulin resin, TEV elution, Mono Q, Superose 6); not shown: CBP, N-terminal, cleaved
T2 sequence (P53840 whole entry, chain 1 of 2): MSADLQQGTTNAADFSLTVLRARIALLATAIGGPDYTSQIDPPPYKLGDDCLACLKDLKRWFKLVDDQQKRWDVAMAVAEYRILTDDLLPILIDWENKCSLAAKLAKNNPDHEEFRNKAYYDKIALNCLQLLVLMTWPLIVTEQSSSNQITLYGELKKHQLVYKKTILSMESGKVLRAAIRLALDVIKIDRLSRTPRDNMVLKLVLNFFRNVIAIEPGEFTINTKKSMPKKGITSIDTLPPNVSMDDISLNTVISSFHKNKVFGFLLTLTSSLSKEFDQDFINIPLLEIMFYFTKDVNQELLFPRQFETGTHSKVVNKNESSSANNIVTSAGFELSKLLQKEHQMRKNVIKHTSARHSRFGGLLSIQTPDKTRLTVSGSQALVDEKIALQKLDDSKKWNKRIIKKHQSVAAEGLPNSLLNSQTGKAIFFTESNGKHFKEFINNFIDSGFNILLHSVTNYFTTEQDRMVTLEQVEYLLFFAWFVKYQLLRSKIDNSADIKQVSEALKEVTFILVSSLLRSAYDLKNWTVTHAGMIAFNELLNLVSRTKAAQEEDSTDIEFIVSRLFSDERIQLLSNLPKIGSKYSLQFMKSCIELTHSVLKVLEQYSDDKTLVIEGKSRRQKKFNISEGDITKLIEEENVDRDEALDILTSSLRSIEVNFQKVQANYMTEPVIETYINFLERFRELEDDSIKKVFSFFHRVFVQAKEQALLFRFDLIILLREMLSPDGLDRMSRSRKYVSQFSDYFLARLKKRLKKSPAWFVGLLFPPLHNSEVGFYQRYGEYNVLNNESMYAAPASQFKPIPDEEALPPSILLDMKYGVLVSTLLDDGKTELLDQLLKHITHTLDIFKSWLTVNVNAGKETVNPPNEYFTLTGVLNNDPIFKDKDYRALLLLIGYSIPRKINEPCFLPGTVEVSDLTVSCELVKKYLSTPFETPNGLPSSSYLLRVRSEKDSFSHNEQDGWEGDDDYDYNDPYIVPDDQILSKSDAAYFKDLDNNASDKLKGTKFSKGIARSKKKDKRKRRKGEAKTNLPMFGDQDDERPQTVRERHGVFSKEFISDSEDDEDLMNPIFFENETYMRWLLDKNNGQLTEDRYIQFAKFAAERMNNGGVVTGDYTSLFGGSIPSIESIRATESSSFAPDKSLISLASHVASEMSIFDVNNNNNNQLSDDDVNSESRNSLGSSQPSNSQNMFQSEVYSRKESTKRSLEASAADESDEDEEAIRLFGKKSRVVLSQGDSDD
T2 sequence (Q04659 whole entry, chain 2 of 2): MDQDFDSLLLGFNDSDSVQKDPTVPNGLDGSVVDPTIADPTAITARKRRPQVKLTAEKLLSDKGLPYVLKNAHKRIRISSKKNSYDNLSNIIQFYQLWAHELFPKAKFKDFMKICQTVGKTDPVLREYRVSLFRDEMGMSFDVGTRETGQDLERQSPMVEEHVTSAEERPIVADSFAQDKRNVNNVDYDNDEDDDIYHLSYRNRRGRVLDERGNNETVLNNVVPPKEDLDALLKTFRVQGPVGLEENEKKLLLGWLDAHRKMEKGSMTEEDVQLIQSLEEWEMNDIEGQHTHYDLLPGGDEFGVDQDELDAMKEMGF

Mcm4 (subunit of CMG) = biological target: T1, Mcm4 (subunit of CMG); settings: both partners purified
Mcm3 (subunit of CMG) = biological target: T3, Mcm3 (subunit of CMG) (yeast, UniProt P24279 1-971); settings: both partners purified
T3 construct: Mcm3, yeast; Chain of m1 as it stands in the replisome structure; source: yeast strain yJCZ2, purified as part of CMG (anti-FLAG M2 resin, Mono Q, Superose 6)
T3 sequence (P24279 whole entry): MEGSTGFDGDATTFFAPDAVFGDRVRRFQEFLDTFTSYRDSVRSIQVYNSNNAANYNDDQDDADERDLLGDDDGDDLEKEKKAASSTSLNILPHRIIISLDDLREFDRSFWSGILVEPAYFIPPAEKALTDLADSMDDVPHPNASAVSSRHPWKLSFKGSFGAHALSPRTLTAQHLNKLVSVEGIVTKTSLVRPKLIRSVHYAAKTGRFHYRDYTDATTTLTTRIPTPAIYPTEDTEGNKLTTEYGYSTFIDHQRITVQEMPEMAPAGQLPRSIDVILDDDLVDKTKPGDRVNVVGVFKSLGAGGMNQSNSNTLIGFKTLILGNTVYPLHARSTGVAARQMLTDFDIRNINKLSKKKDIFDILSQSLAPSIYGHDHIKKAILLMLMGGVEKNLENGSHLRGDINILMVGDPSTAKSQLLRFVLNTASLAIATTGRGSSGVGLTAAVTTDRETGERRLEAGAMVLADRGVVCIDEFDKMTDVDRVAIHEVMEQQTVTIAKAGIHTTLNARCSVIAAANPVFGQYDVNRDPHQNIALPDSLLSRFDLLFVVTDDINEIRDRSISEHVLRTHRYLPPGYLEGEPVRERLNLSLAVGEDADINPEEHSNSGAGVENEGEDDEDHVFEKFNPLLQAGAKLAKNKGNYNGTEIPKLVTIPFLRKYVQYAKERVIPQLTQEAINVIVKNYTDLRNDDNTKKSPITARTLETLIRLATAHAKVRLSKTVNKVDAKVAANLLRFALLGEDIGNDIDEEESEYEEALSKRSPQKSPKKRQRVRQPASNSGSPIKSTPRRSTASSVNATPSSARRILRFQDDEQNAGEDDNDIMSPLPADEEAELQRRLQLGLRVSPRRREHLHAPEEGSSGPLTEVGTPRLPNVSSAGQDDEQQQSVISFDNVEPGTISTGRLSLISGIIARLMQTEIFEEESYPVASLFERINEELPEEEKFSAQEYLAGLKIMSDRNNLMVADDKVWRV

[1] = biological target: the molecule itself

| binding result (Tof1-Csm3) | binding result (Mcm4 (subunit of CMG)) | binding result (Mcm3 (subunit of CMG)) | Binder | stoichiometry N [1] |
| --- | --- | --- | --- | --- |
| binds | binds | binds | Mcm7 (subunit of CMG) (natural protein, yeast, Mcm7, yeast; Chain of m1 as it stands in the replisome structure; source: yeast strain yJCZ2, purified as part of CMG (anti-FLAG M2 resin, Mono Q, Superose 6)) MSAALPSIQLPVDYNNLFNEITDFLVTFKQDTLSSDATRNENEDENLDAENIEQHLLEKGPKYMAMLQKVANRELNSVIIDLDDILQYQNEKFLQGTQADDLVSAIQQNANHFTELFCRAIDNNMPLPTKEIDYKDDVLDVILNQRRLRNERMLSDRTNEIRSENLMDTTMDPPSSMNDALREVVEDETELFPPNLTRRYFLYFKPLSQNCARRYRKKAISSKPLSVRQIKGDFLGQLITVRGIITRVSDVKPAVEVIAYTCDQCGYEVFQEVNSRTFTPLSECTSEECSQNQTKGQLFMSTRASKFSAFQECKIQELSQQVPVGHIPRSLNIHVNGTLVRSLSPGDIVDVTGIFLPAPYTGFKALKAGLLTETYLEAQFVRQHKKKFASFSLTSDVEERVMELITSGDVYNRLAKSIAPEIYGNLDVKKALLLLLVGGVDKRVGDGMKIRGDINVCLMGDPGVAKSQLLKAICKISPRGVYTTGKGSSGVGLTAAVMKDPVTDEMILEGGALVLADNGICCIDEFDKMDESDRTAIHEVMEQQTISISKAGINTTLNARTSILAAANPLYGRYNPRLSPLDNINLPAALLSRFDILFLMLDIPSRDDDEKLAEHVTYVHMHNKQPDLDFTPVEPSKMREYIAYAKTKRPVMSEAVNDYVVQAYIRLRQDSKREMDSKFSFGQATPRTLLGIIRLSQALAKLRLADMVDIDDVEEALRLVRVSKESLYQETNKSKEDESPTTKIFTIIKKMLQETGKNTLSYENIVKTVRLRGFTMLQLSNCIQEYSYLNVWHLINEGNTLKFVDDGTMDTDQEDSLVSTPKLAPQTTASANVSAQDSDIDLQDA | – |
| – | – | – | Ctf4 homotrimer (natural protein, yeast, Ctf4, yeast; also called Ctf4 trimer; source: E. coli BL21(DE3) Rosetta (pXZ1), purified (Ni-NTA, sumo protease, Ni-NTA, Mono Q, Superose 6)) MVSVIDKLVFDFGGKTLVSLAPDNNTLCVANKNGLTKILKTNNPEEEPETLDSSKLVSSIKCYSNSHFLMTTMQGDALRYNIDSSQEELLARFALPLRDCCVIHSGKMAVFGGDDLELILLELDDETHKKHAIKIDEQVSQISYNSQMNILAVSMINGKVQIFSLTSTIPNKVHELNDYIVANSYDDTHRDKILSNMMDDIDKDNDNDLSETADPDENNVADPEFCAANRICTRVAWHPKGLHFALPCADDTVKIFSIKGYSLQKTLSTNLSSTKAHFIDLQFDPLRGTYIAAVDLNNKLTVWNWETSEIHYTREFKRKITNIAWKIQADSKTLDLVLGTWSGSIAIVQNLAESVVSNIPDQSVAESSTKHGLFVDSESDLENLEGNDDINKSDKLFSDITQEANAEDVFTQTHDGPSGLSEKRKYNFEDEEDFIDDDDGAGYISGKKPHNEHSYSRVHKTHSFPISLANTGKFRYMPFSPAGTPFGFTDRRYLTMNEVGYVSTVKNSEQYSITVSFFDVGRFREYHFEDLFGYDLCFLNEKGTLFGQSKTGQIQYRPHDSIHSNWTKIIPLQAGERITSVAATPVRVIVGTSLGYFRSFNQFGVPFAVEKTSPIVALTAQNYRVFSVHYSQFHGLSYSLSELGTSSKRYYKRECPLPMSLPNINSDMKKDANLDYYNFNPMGIKSLFFSSYGDPCIFGSDNTLLLLSKWRSPEESKWLPILDSNMEIWKMSGGKETTDIHVWPLALAYDTLNCILVKGKHIWPEFPLPLPSEMEIRMPVFVKSKLLEENKAILNKKNEIGADTEAEEGEEDKEIQIPVSMAAEEEYLRSKVLSELLTDTLENDGEMYGNENEVLAALNGAYDKALLRLFASACSDQNVEKALSLAHELKQDRALTAAVKISERAELPSLVKKINNIREARYEQQLK | 3 |
